T1: TAN IgE (chimeric: murine light chains and variable region, human heavy-chain constant region) (Mus musculus/Homo sapiens chimera, UniProt P01854-1 P01854-1:1-428)
T1 chain: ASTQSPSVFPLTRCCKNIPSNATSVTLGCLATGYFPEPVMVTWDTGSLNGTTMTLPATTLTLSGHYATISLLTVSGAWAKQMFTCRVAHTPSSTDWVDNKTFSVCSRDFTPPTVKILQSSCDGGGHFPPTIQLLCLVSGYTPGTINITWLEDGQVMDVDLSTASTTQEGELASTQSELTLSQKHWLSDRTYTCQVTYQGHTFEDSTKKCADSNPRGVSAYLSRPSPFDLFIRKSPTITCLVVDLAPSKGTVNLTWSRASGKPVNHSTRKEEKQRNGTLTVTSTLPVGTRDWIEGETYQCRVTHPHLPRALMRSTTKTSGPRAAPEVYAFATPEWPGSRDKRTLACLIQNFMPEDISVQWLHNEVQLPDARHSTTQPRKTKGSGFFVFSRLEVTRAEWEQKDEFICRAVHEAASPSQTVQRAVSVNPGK

B1: D17.0 (ssDNA)
DNA: CTACCTACGATCTGACTAGCCAATGAGTGTACCACGTTTATCCGTCCCTCCTAGTGGCGTGCTTACTCTCATGTAGTTCC
B2: IGEL1.1 (ssRNA)
RNA: GGGAGGACGAUGCGGGUGUGAAUGGUGUUGUGAGGUUACUGUACUUCGGUGGCUGCAGACGACUCGCCCGA
modifications: 2'-NH2 on all C and U
B3: IGEL49.1 (ssRNA)
RNA: GGGAGGACGAUGCGGGUGUGGGGCGGAUAAUGAGUGAACAGAGUGAAAUUCCAGUGUAGCCAGACUGUGCUGUCGCAGACGACUCGCCCGA
modifications: 2'-NH2 on all C and U
B4: IGEL7.1 (ssRNA)
RNA: GGGAGGACGAUGCGGAGACGCGUGAACACUAGUAUCACAGUUAAGGAUGCGCGCAGACGACUCGCCCGA
modifications: 2'-NH2 on all C and U
B5: IGEL29.1 (ssRNA)
RNA: GGGAGGACGAUGCGGGUGUCAAUGGUGUUGCGAGGCAAAAAUAACCAGCGCAUAUUCUCGGCCAUGUUGGCGUGCAUACAGACGACUCGCCCGA
modifications: 2'-NH2 on all C and U
B6: IGEL4.1 (ssRNA)
RNA: GGGAGGACGAUGCGGACGGUAGUCUGGUAGGCGCUGUGACGGCGAGAAUCCGGACCAGACGACUCGCCCGA
modifications: 2'-NH2 on all C and U
B7: IGEL31.1 (ssRNA)
RNA: GGGAGGACGAUGCGGGUGUGAAUGGUGUUGUGAGGUUCUCGACUGUUUGUGUCUAGCCGUACUUUAGCCUCGGCCAGACGACUCGCCCGA
modifications: 2'-NH2 on all C and U
B8: IGEL10.1 (ssRNA)
RNA: GGGAGGACGAUGCGGGCCACGCGUGGUUAGGGAUCGCGGACAGCACAAAUCGAAUUUGAUUCGCACCUGGACGGUCAGACGACUCGCCCGA
modifications: 2'-NH2 on all C and U
B9: IGEL2.1 (ssRNA)
RNA: GGGAGGACGAUGCGGGUGUGGGGCGAAUGAGAAACGUUACCAGGAAAUGCGACUGCAGACGACUCGCCCGA
modifications: 2'-NH2 on all C and U
B10: IGEL11.1 (ssRNA)
RNA: GGGAGGACGAUGCGGAACAGCACGAGUGUACCUAAGACAGGCGAUGGCACUCGUGGUCGAAAUCAUAUAGUGAUGCAGACGACUCGCCCGA
modifications: 2'-NH2 on all C and U
B11: IGEL25.1 (ssRNA)
RNA: GGGAGGACGAUGCGGGUGUGAAUGGUGUCGUGAGGACUUAUCAGGCUCCGUGGUGCAGACGACUCGCCCGA
modifications: 2'-NH2 on all C and U
B12: IGEL8.1 (ssRNA)
RNA: GGGAGGACGAUGCGGACCGCCCGUCGAGGGCUAGGCGUAGAGUCUAACCGGUGCCAGACGACUCGCCCGA
modifications: 2'-NH2 on all C and U
B13: IGEL48.1 (ssRNA)
RNA: GGGAGGACGAUGCGGGAGUGGGGCGAUGAGAGAGAUCAGAGAACUAGAAGUGAUACAAAAUCUGAGGUUGUUGCGCAGACGACUCGCCCGA
modifications: 2'-NH2 on all C and U
B14: IGEL44.1 (ssRNA)
RNA: GGGAGGACGAUGCGGGUGCGGGGCGAGUAUAUGAAACUUGGCUUGGUAAUGAUCAGAAGUAGUGAGAACUGGGUGCAGACGACUCGCCCGA
modifications: 2'-NH2 on all C and U
B15: IGEL13.1 (ssRNA)
RNA: GGGAGGACGAUGCGGGACGGGGGCGGAAUCAUGCAUGUGAGCGAACAGAGAGAGAGCCGUGUAUCCAUUCGUGGUCAGACGACUCGCCCGA
modifications: 2'-NH2 on all C and U
B16: IGEL5.1 (ssRNA)
RNA: GGGAGGACGAUGCGGGUAUCGGUACGUGUUGGCUUGGGAAGGGGUCCGACGGUGCAGACGACUCGCCCGA
modifications: 2'-NH2 on all C and U
B17: IGEL3.1 (ssRNA)
RNA: GGGAGGACGAUGCGGUCCAUCGAUUAGGCGGUCGUGCUGGUGUAGUGUGUAGUGGCAGACGACUCGCCCGA
modifications: 2'-NH2 on all C and U
B18: IGEL9.1 (ssRNA)
RNA: GGGAGGACGAUGCGGGCGGGGAACAGACGGCUCAGAGCGGCACGAUUGUCAGCCAGCAAUUAUAUCGUGUUGAUGCAGACGACUCGCCCGA
modifications: 2'-NH2 on all C and U

Molecular target: T1, TAN IgE (chimeric: murine light chains …)
Test: inhibition; inhibits IgE binding to FceRI on RBL SX-38 cells, ELISA
Conditions: tags: biotinylated in the receptor assay; gift of Dr. Kinet (NIH); chain copies: 2; label: 5' 32P; hairpin
Protocol: A cell-based enzyme linked immunosorbent assay (ELISA) was used to measure the ability of the high-affinity DNA ligands to inhibit binding of IgE to the FcεRI receptor. Rat basophilic leukemia (RBL) cell-line SX-38 which expresses the α, β and γ subunits of the human FcεRI receptor was plated at a concentration of 10^5 cells per well in 96 well flat-bottom microtiter plates. After overnight growth, the cells were washed three times in modified PBS and incubated for one hour at 37° C. in 30 µl of 1.5 µg/ml biotinylated TAN IgE. The cells were washed 3 more times and incubated in 30 µl of 1/100 dilution of horseradish peroxidase (Molecular Probes, Eugene, Oreg.) conjugated to avidin for one hour at 37° C. After three final washes, 30 µl of 3,3',5,5'-tetramethylbenzidine (TMB) substrate, (Kirkegaard and Perry Laboratories, Gaithersburg, Md.) were added as a chromogenic substrate, and the plate was immediately transferred to the microtiter plate reader (Bio-Tek instruments, Winooski, Vt.) for analysis. The absorbance at 630 nm was measured every 60 seconds over a time span of 15 minutes. The rate of color development is an indication of the extent of IgE binding to the FcεRI receptor and was determined from the linear part of absorbance versus time graphs (data not shown). […] The inhibition activities of the RNA ligands were determined using the following formula: […]

| Binder | Ki [nM] |
| --- | --- |
| GGGGCACGTTTATCCGTCCCTCCTAGTGGCGTGCCCC (ssDNA) [D17.4] | ~40 |

Same assay, conditions: tags: biotinylated in the receptor assay; gift of Dr. Kinet (NIH); chain copies: 2; label: 5' 32P; stem-loop

| Binder | Ki [nM] |
| --- | --- |
| B1 | ~40 |

Molecular target: T1, TAN IgE (chimeric: murine light chains …)
Test: as above
Conditions: tags: biotinylated in the receptor assay; gift of Dr. Kinet (NIH); chain copies: 2; label: 32P
Protocol: Rat basophilic leukemia (RBL) cell-line SX-38 which expresses the α, β and γ subunits of the human FcεRI IgE receptor was plated at a concentration of 10^5 cells per well in 96 well flat-bottom microtiter plates. After overnight growth, the cells were washed three times in modified PBS and incubated for one hour at 37° C. in 30 μl of 1.5 μg/ml biotinylated TAN IgE. The cells were washed 3 more times and incubated in 30 μl of 1/100 dilution of horseradish peroxidase conjugated to avidin (Molecular Probes, Eugene, Oreg.) for one hour at 37° C. After three final washes, 30 μl of 3,3',5,5'-tetramethylbenzidine (TMB) substrate (Kirkegaard and Perry Laboratories, Gaithersburg, Md.) were added as a chromogenic substrate and the plate was immediately transferred to the microtiter plate reader (Bio-Tek Instruments, Winooski, Vt.) for analysis. The absorbance at 630 nm was measured every 60 sec over a time span of 15 min. The rate of color development is an indication of the extent of IgE binding to the FcεRI receptor and was determined from the linear part of absorbance versus time graphs (data not shown). […] The inhibition activities of the RNA ligands were determined using the following formula: […]

| Binder | Ki [nM] |
| --- | --- |
| GGGAGGACGAUGCGGGUGUGAAUGGUGUUGUGAGG (ssRNA, 2'-NH2 on all C and U) [IGEL1.2] | 21 |
| B2 | 44 |

What follows are binders tested against T2, human IgE (Homo sapiens, UniProt P01854-1 P01854-1:1-428) (assay: filter; modified PBS, 1 mM Mg2+, 37 C). Conditions: tags: Athens Research Technology; chain copies: 2; label: 5' 32P; hairpin.
Protocol: Affinities of representative DNA ligands for human IgE were determined by nitrocellulose filter binding experiments and the K_Ds are listed in Table 7. […] Individual clones tested from this pool have affinities in the same range. The affinities were not expected to vary widely since the enriched DNA pool is very homogenous. Ligand D17.0 was picked for truncation experiments. […] However, the affinity could be restored to the level of the full-length ligand by the addition of a 4 basepair stem resulting in the 37 base truncate D17.4. It is possible that the stem in D17.1 is not stable enough to prevent the formation of an alternative secondary structure and that the additional base pair in D17.4 lock in the conformation necessary for IgE binding.

| Binder | Kd [nM] |
| --- | --- |
| CACGTTTATCCGTCCCTCCTAGTGGCGTG (ssDNA) [D17.1] | 82 |
| GGGGCACGTTTATCCGTCCCTCCTAGTGGCGTGCCCC (ssDNA) [D17.4] | 10 |

Same assay, conditions: tags: Athens Research Technology; chain copies: 2; label: 5' 32P; stem-loop

| Binder | Kd [nM] |
| --- | --- |
| B1 | 9 |

Molecular target: T1, TAN IgE (chimeric: murine light chains …)
Test: filter; modified PBS, 1 mM Mg2+, 37 C
Conditions: tags: biotinylated in the receptor assay; gift of Dr. Kinet (NIH); chain copies: 2; label: 32P
Protocol: To test the specificity of the high-affinity interaction between the RNA ligands and human IgE, binding experiments were performed with different immunoglobulins as described in Example 1.
In order to localize which part of the IgE molecule the RNA ligands are contacting, binding experiments were carried out with a hybrid IgE molecule. The light chains and the variable region of this TAN IgE are murine derived, whereas the constant portion of the heavy chains are human.

| Binder | Kd [nM] |
| --- | --- |
| GGGAGGACGAUGCGGGUGUGAAUGGUGUUGUGAGG (ssRNA, 2'-NH2 on all C and U) [IGEL1.2] | 36 |
| B2 | 77 |

What follows are binders tested against T2, human IgE (assay: filter; modified PBS, 1 mM Mg2+, 37 C). Conditions: tags: Athens Research Technology; chain copies: 2; label: 32P.

| Binder | Kd [nM] |
| --- | --- |
| B3 | 39 |
| B4 | 142 |
| B5 | 141 |
| B6 | 87 |
| B7 | 134 |
| B8 | 69 |
| GGGAGGACGAUGCGGGUGUGAAUGGUGUUGUGAGG (ssRNA, 2'-NH2 on all C and U) [IGEL1.2] | 19 |
| GGGAGGACGAUGCGGGUGUGGGGCG (ssRNA, 2'-NH2 on all C and U) [IGEL2.2] | 44 |
| B9 | 41 |
| B10 | 129 |
| B11 | 186 |
| B2 | 138 |
| B12 | 225 |
| B13 | 30 |
| B14 | 34 |
| B15 | 50 |
| B16 | 145 |
| B17 | 56 |
| B18 | 105 |
